This is an account of results in publication PMC3950521 (mBio, 2014).

Test in all cases: SAXS
For series [1], the target named is choline-binding domain of wt-LytA (LytA^CBD) (Streptococcus pneumoniae TIGR4).
Series [2] addresses full-length prophage LytA (prophage of Streptococcus pneumoniae Hungary 19A-6).
The series “SAXS” concerns the molecule itself.

As for “choline-binding domain of wt-LytA (LytA^CBD) (domain or fragment)”, the stoichiometry N in series [1] was determined as 2.

On to full-length prophage LytA (enzyme), for which, in series [2], the stoichiometry N is 2.

B1: full-length wild-type LytA (N-acetylmuramoyl-L-alanine amidase, major autolysin of Streptococcus pneumoniae) (enzyme, Streptococcus pneumoniae TIGR4, UniProt P06653 1-318, looked up)
chain: MEINVSKLRTDLPQVGVQPYRQVHAHSTGNPHSTVQNEADYHWRKDPELGFFSHIVGNGCIMQVGPVDNGAWDVGGGWNAETYAAVELIESHSTKEEFMTDYRLYIELLRNLADEAGLPKTLDTGSLAGIKTHEYCTNNQPNNHSDHVDPYPYLAKWGISREQFKHDIENGLTIETGWQKNDTGYWYVHSDGSYPKDKFEKINGTWYYFDSSGYMLADRWRKHTDGNWYWFDNSGEMATGWKKIADKWYYFNEEGAMKTGWVKYKDTWYYLDAKEGAMVSNAFIQSADGTGWYYLKPDGTLADKPEFTVEPDGLITVK
In the case of B1, the “stoichiometry N” value in the series “SAXS” worked out at 2.

B2: recombinant full-length His-tagged LytA, wt-LytA(N-His6) (enzyme, Streptococcus pneumoniae TIGR4, UniProt P06653 1-318, looked up)
chain: MEINVSKLRTDLPQVGVQPYRQVHAHSTGNPHSTVQNEADYHWRKDPELGFFSHIVGNGCIMQVGPVDNGAWDVGGGWNAETYAAVELIESHSTKEEFMTDYRLYIELLRNLADEAGLPKTLDTGSLAGIKTHEYCTNNQPNNHSDHVDPYPYLAKWGISREQFKHDIENGLTIETGWQKNDTGYWYVHSDGSYPKDKFEKINGTWYYFDSSGYMLADRWRKHTDGNWYWFDNSGEMATGWKKIADKWYYFNEEGAMKTGWVKYKDTWYYLDAKEGAMVSNAFIQSADGTGWYYLKPDGTLADKPEFTVEPDGLITVK
Consider B2, for which the “stoichiometry N” value in the series “SAXS” came out at 2.

The term stoichiometry N denotes the number of molecules, sites or subunits per partner or assembly.
